These results are taken from US20100021473A1 (DOMANTIS, published 2010).

In test [1] the target is T1, CD138 on cells (UniProt P18827 23-310).
T1 construct: whole, on cells; Endogenous CD138 on cell lines used in FACS; also called DOM12; syndecan-1
T1 sequence (looked up): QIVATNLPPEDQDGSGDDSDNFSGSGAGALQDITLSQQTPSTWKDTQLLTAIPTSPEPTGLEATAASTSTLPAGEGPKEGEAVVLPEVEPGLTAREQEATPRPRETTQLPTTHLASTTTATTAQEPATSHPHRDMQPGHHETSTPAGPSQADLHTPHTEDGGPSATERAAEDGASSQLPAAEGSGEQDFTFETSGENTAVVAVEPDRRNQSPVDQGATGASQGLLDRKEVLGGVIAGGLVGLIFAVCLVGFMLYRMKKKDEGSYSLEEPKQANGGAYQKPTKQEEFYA
In words: FACS on RPMI cells (CD38+/138+). As to the method:
(§1) All dAbs were analysed by FACS on antigen positive and negative cell lines using the following method.
(§2) The determination of cell binding by FACS was carried out as follows: cells were centrifuged at 250 g for 5 minutes and the growth medium was removed. The cells were resuspended in FACS incubation buffer at 4° C. at a density of 2×10⁶ cells/ml. The cells were blocked by incubating for 15 minutes at 4° C. in FACS incubation buffer. Fifty microliters of 2× stock of primary antibody (anti-CD38 FITC, anti-CD138 FITC or mIgG1 FITC conjugated isotype control (all BD Biosciences) was added; or dAb was added to cells in FACS incubation buffer and incubated for 30-60 minutes at 4° C. The cells were then washed once in FACS incubation buffer. One hundred microliters of secondary antibody (rabbit anti-Vk) was added to cells in FACS incubation buffer and incubated 30-60 minutes at 4° C. The cells were washed once in FACS incubation buffer. Then 100 ul of 1× tertiary antibody was added to the cells in FACS incubation buffer and incubated for 30-60 mins at 4° C. (for dAbs the tertiary antibody is anti-rabbit FITC (Sigma)). The cells were washed twice in FACS incubation buffer. The cell pellet was resuspend in 200 ul FACS incubation buffer+viable cell marker (BD Viaprobe). The cells were then analyzed by flow cytometry.

Test [2] addresses T2, CD38 and CD138 co-expressed on cells (CD38+/CD138+ double positive cells) (UniProt P28907 1-300; P18827 23-310).
T2 construct: whole, on cells; Two separate membrane proteins on the same cell, not a complex; also called RPMI8226; OPM2
In words: cell-based or functional assay.

Test [3] deals with T3, CEA immobilised on Biacore CM5 chip (UniProt P06731 35-685, limits assumed).
T3 construct: also called DOM13
T3 sequence (looked up): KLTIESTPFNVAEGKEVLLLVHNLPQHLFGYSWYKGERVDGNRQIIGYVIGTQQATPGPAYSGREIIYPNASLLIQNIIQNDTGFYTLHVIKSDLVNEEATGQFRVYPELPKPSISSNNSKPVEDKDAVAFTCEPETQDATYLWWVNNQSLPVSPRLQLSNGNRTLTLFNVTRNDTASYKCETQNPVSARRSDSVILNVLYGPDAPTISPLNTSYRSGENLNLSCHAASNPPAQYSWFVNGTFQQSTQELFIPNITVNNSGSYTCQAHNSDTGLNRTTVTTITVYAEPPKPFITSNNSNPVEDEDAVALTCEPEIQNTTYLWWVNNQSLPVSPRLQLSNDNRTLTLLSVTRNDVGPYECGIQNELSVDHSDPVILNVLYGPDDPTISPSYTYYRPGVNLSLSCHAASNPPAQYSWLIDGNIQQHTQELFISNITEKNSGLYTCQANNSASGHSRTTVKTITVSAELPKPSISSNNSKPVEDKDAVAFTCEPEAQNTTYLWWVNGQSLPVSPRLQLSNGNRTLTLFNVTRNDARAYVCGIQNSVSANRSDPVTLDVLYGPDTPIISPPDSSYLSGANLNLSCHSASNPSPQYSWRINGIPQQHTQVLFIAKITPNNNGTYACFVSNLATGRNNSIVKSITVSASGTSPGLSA
In words: Biacore, CEA immobilised. Here is the method:
(§3) Anti-CD38, anti-CEA and anti-CD56 dAbs that were identified as FACS positive clones were in addition analysed by Biacore using the following procedure. The CM5 chip surface was activated by flushing 1:1 EDC/NHS (0.4M1-ethyl-3-(3-dimenthylaminopropyl)-carbodiimide in water; 0.1 M N-hydroxysuccinimide in water) at a flow rate of 5 uL/min for 10 minute contact time. CD38 was immobilised at 500 nM in Acetate buffer pH4 at 5 uL/min this was repeated until the RUs reached between 500 and 1000 (low density). CEA and CD56 were coupled in acetate buffer pH 4.5. Any excess reactive groups were deactivated by running 1M ethanolamine-HCl over the CM5 chip (again 5 uL/min for 7 mins). The affinities of the anti-CD38, anti-CEA and anti-CD56 dAbs were measured on the biacore as described above.
On the technique in general: SPR reads the build-up and loss of mass on a sensor chip optically.

In test [4] the target is T4, NCA on H647 cells (UniProt P40199 35-320, limits assumed).
T4 construct: whole, on cells; Its identity is an inference
T4 sequence (looked up): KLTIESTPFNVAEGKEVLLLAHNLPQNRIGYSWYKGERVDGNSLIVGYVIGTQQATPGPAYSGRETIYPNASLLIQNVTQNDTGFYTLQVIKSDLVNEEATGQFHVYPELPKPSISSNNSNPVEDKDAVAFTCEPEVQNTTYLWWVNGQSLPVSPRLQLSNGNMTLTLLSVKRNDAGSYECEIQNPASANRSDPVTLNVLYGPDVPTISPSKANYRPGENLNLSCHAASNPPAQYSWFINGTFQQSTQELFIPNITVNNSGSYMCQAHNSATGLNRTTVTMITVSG
In words: FACS on H647 cells (CEA-/NCA+). As to the method: as §1, §2

The target in test [5] is T1, CD138 on cells. The experiment in a line: FACS on HUVEC cells (CD38-/CD138+). As to the method: as §1, §2
Test [6] addresses T5, CD38 on cells (UniProt P28907 1-300).
T5 construct: whole, on cells; Endogenous CD38 on cell lines used in FACS or microscopy; also called DOM11; T10
In words: FACS on RPMI cells (CD38+/138+). As to the method: as §1, §2

For test [7], the target named is T2, CD38 and CD138 co-expressed on cells …. In words: FACS cell binding titration on OPM2 cells (CD38+/CD138+), arithmetic mean fluorescence. The table prints no unit; the unit is taken from the x axis 'log conc in nm' (nanomolar). As to the method: as §2
Anti-CD38 and anti-CD138 affinity matured dAbs were paired to create dual specific ligands by cloning an anti-CD38 dAb and an anti-CD138 dAb into a dual expression vector. To determine if the increased affinity of the monomers was reflected in increased binding affinity of the dual specific ligand, a range of the affinity matured anti-CD38 dAbs were paired with the anti-CD138 dAb DOM12-45, a range of affinity matured anti-CD138 dAbs were paired with anti-CD38 dAbs, and a range of affinity matured anti-CD38 dAbs and affinity matured anti-CD138 dAbs were paired. All dual specific ligands were expressed in E. coli and purified using protein L agarose followed by Resource S cation exchange chromatography when required. The binding affinity of the dual specific ligands was assessed by FACS as described previously. In this study, a range of concentrations was used to allow determination of EC50.

Test [8] deals with T6, CD38 immobilised on Biacore CM5 chip (UniProt P28907 43-300, limits assumed).
T6 construct: also called DOM11
In words: SPR (Biacore), CD38 immobilised on CM5 chip. As to the method:
as §3

In test [9] the target is T6, CD38 immobilised on Biacore CM5 chip. In words: Biacore, CD38 immobilised. As to the method: as §3
Affinity maturation libraries were created for the anti-CD38 dAbs DOM11-3 and DOM11-30 by error prone PCR. […] Initial screening was carried out by BIAcore (as described previously) and subsequently by FACS.

B1: DOM12-26 (other)
chain: DIQMTQSPSSLSASVGDRVTITCRASQDIFTKLRWYQQKPGKAPRLLIYAGSRLQSGVPSRFSGSGSGTDFTLTISSLQPEDFATYYCQQVKQKPWTFGQGTKVEIKR
notes: Anti-CD138 dAb monomer
As to B1, the binding result in [1] is “binds”.

B2: DOM11-30/DOM12-45 anti-CD38/anti-CD138 dual specific ligand (bispecific antibody, part only; not given: linker between dAbs, not shown: small tags and cut ends)
chain, part: DIQITQSPSSLSASVGDRITITCRASQKIENDLAWYQQKPGKAPKLLIYYTSILQSGVPSRFSGSGSGTDFTLTISSLQPEDFATYYCQQRRYVPATFGQGTKVEIKRDIQMTQSPSSLSASVGDRVTITCRASQDIGDRLRWYQQKPGKAPKLLIYHGSRLESGVPSRFSGSRSGTDFTLTISSLQPEDFATYYCQQQWFRPYTFGQGTKVEIKR
In test [2], B2 had a % internalized of 8%.

B3: DOM13-74 (other)
chain: DIQMTQSPSSLSASVGDRVTITCRASQPIKMMLSWYQQKPGKAPKLLIYNNSTLQSGVPSRFSGSGSGTDFTLTISSLQPEDFATYYCQQYRRWPYTFSQGTKVEIKR
notes: Anti-CEA dAb monomer
A word on the Kd: it is a measure of binding affinity in units of concentration. High values mean a looser complex, low ones a tighter complex. In turn, B3 came in with a Kd in test [3] of 0.1 to 0.2 µM. In addition, the binding result in test [4] is reported as “no binding”.

B4: DOM11-7 (other)
chain: DIQMTQSPSSLSASVGDRVTITCRASQYINTLLSWYQQKPGKAPKLLIYAQSRLQSGVPSRFSGSGSGTDFTLTISSLQPEDFATYYCQQFAFRPYTFGQGTKVEIKR
notes: Anti-CD38 dAb monomer
Turning to B4, the binding result in test [5] is reported as “no binding”; in test [6], “binds”.

B5: DOM13-25 (other)
chain: DIQMTQSPSSLSASVGDRVTITCRASQSIGPWLSWYQQKPGKAPKLLIYQVSRLQSGVPSRFSGSGSGTDFTLTISSLQPEDFATYYCQQNLAPPYTFGQGTKVEIKR
notes: Anti-CEA dAb monomer
B5 had a Kd in test [3] of 0.1 to 0.2 µM. Moreover, the binding result in test [4] is recorded as “no binding”.

B6: DOM13-59 (other)
chain: DIQMTQSPSSLSASVGDRVTITCRASQKIMTHLRWYQQKPGKAPKLLIYGGSHLQSGVPSRFSGSGSGTDFTLTISSLQPEDFATYYCQQTWVSPMTFGQGTKVEIRR
notes: Anti-CEA dAb monomer
Molecule B6 displayed a Kd in [3] of 0.4 to 0.8 µM. Besides, in test [4], the binding result was “no binding”.

B7: DOM 11-3-1/DOM 12-45-2 (bispecific antibody, V domains shown)
V domain 1: DIQMTQSPSSLSASVGDRVTITCRASHNIDSRLSWYQQKPGKAPKLLIYRASVLQSGVPSRFRGSGSGTDFTLTISSLQPEDFATYYCQQWDMFPLSFGQGTKVEIKR
V domain 2: DIQMTQSPSSLSASVGDRVTITCRASQDIGGRLRWYQQKPGKAPKLLIYHGSRLDSGVPSRFSGSRSGADFTLTISSLQPEDFATYYCQQQWYRPYTFGQGTKVEIKR
As a reminder, the EC50 is the concentration that produces a half-maximal response. The low end stands for higher potency in that assay, the high end for lower potency in that assay. Molecule B7 had an EC50 in [7] of 0.0138 µM.

B8: DOM 11-3-23/DOM 12-45-2 (bispecific antibody, V domains shown)
V domain 1: DIQMTQSPSSLSASVGDRVTITCRASQNIDSRLSWYQQKPGKAPKLLIYRASVLQSGVPSRFSGSGSGTDFTLTISSLQPEDFATYYCQQWDMFPLAFGQGTRVEIKR
V domain 2: DIQMTQSPSSLSASVGDRVTITCRASQDIGGRLRWYQQKPGKAPKLLIYHGSRLDSGVPSRFSGSRSGADFTLTISSLQPEDFATYYCQQQWYRPYTFGQGTKVEIKR
As to B8, the concentration for a half-maximal effect (EC50) in [7] was 0.011 µM.

B9: DOM 11-3-15/DOM 12-45-2 (bispecific antibody, V domains shown)
V domain 1: DIQMTQSPSSLSASVGDRVTITCRASQNIDSRLSWYQQKPGKAPKLLIYRASVLQSGVPSRFSGTGSGTDFTLTISSLQPEDFATYYCQQWDMFPLSFGQGTKVEIKR
V domain 2: DIQMTQSPSSLSASVGDRVTITCRASQDIGGRLRWYQQKPGKAPKLLIYHGSRLDSGVPSRFSGSRSGADFTLTISSLQPEDFATYYCQQQWYRPYTFGQGTKVEIKR
For the molecule B9, the midpoint of the response in test [7], the EC50, lay at 0.0167 µM.

B10: DOM 11-3-20/DOM 12-45-2 (bispecific antibody, V domains shown)
V domain 1: DIQTTQSPSSLSASVGDRVTITCRASQNIDSRLSWYQQKPGKAPKLLIYRSSVLQSGVPSRFSGSGSGTDFTLTISSLQPEDFATYYCQQWDMFPLMFGQGTKVEIKR
V domain 2: DIQMTQSPSSLSASVGDRVTITCRASQDIGGRLRWYQQKPGKAPKLLIYHGSRLDSGVPSRFSGSRSGADFTLTISSLQPEDFATYYCQQQWYRPYTFGQGTKVEIKR
In test [7], B10 gave an EC50 of 0.0119 µM.

B11: DOM11-30 (other)
chain: DIQITQSPSSLSASVGDRITITCRASQKIENDLAWYQQKPGKAPKLLIYYTSILQSGVPSRFSGSGSGTDFTLTISSLQPEDFATYYCQQRRYVPATFGQGTKVEIKR
notes: Anti-CD38 dAb monomer
With B11, the Kd was 0.15 µM in test [8] and 0.19 to 0.23 µM in test [9].

B12: DOM12-17 (other)
chain: DIQMTQSPSSLSASVGDRVTITCRASQSIGNNLLWYQQKPGKAPKLLIYYTSRLQSGVPSRFSGSGSGTDFTLTISSLQPEDFATYYCQQRRTHPHTFGQGTKVEIKR
notes: Anti-CD138 dAb monomer
On to B12, for which the binding result in test [1] is recorded as “binds”.
